Source: US20110314564A1, “ENZYMES AND METHODS FOR HYDROLYSING PHENYLUREAS, CARBAMATES AND ORGANOPHOSPHATES” (priority 2008, published 2011)

How the values were obtained:
[1] = tested on: Mycobacterium brisbanense strain JK1; test: Degradation of diuron and accumulation of DCA in liquid culture; type: cell-based; conditions: alternate nitrogen source present
Experimental: MM (50 mL) supplemented with 10 mM glucose, 0.13 mM diuron and 18.7 mM ammonium chloride (as required) were inoculated with 0.2% of a homogeneous suspension of freshly grown M. brisbanense strain JK1 cells (0D600=˜10). Cultures were incubated at 28° C. with shaking at 200 rpm, in the dark. Samples were taken at ˜24 hour intervals, and metabolites were extracted in 50% acetonitrile, filtered and analysed by HPLC.

[2] = biological target: PuhB (Mycolicibacterium brisbanense, UniProt B8R4K0); test: Hydrolysis of phenylurea, carbamate and organophosphate substrates by purified PuhB (LCMS / FBBS / A400 assays); conditions: PuhB
[3] = neutral buffer; estimated from the work of Salvestrini et al. (2002); cited from earlier work
[4] = Activity of native PuhA and PuhB at each purification step (DCA formation); type: biochemical
Text: (§1) Protein concentration was estimated using the Bio-rad protein assay (Bradford), with bovine serum albumin used as standard. Protein purity was monitored using sodium dodecyl sulphate-polyacrylamide gel electrophoresis (SDS-PAGE) stained with Coomassie brilliant blue. Where PuhA and B concentrations were estimated in semi purified extracts, SDS-PAGE gels were scanned using Labscan v5 (Amersham Biosciences) and band densitometry performed with Total lab TL100 (Nonlinear dynamics). Talon cobalt resin (BD Biosciences) was used for the purification of hexa-histidine tagged protein. Untagged protein was purified by ammonium sulfate (AS) precipitiation followed by hydrophobic interaction chromatography (HIC; Phenylsepharose), anion exchange chromatography (AEX; Macro Q) and size exclusion chromatography (SEC; Superose 6 or Sephadex 200). All columns were purchased from GE Healthcare. The hydrophobic interaction column was equilibrated with Tris (pH 8)/1 M ammonium sulfate and bound protein was then eluted with Tris (pH 8) over 400 mL. Protein was bound to the anion exchange column with Tris (pH 8) and eluted with a gradient of Tris (pH 8)/1 M NaCl over 500 mL. The buffer was exchanged to 25 mM HEPES/50 mM KCl (pH 8) during SEC and the protein was stable in this buffer at 4° C. for several weeks. The oligomeric structure was estimated with a Superose 6 size exclusion column calibrated with the following protein standards (kDa): thyroglobulin (669), ferritin (440), catalase (232) and aldolase (158). Standard tryptic peptide mass fingerprinting was used to confirm the identity of proteins excised from polyacrylamide gels by liquid chromatography electro spray ionisation mass spectroscopy/mass spectroscopy (LC ESI MS/MS) ion trap following the method of Campbell et al. (2008).

[5] = Activity of PuhA and PuhB expressed in M. smegmatis at each purification step (PNP release); type: biochemical
Experimental: (§2) Pwo polymerase (Roche) and restriction enzymes NdeI, BamHI and HindIII (Fermentas) were used following manufacturers' protocols. Electro-competent E. coli strains JM109 (Promega) were utilised for transformation of ligation reactions (using Promega ligase). Protein expressions in E. coli were inoculated (1% v/v) with an overnight seed culture in LB and then incubated with shaking at 20° C. for 11 hours followed by induction with 0.1 mM isopropyl-β-D-thiogalactopyranoside (IPTG) for 3 hours. M. smegmatis expressions were amended with 0.05% tween 80 and grown in LB at 28° C. for 2-4 days with no induction. Clarified cell-free extracts were obtained by resuspending the bacteria in 25 mM Tris (pH 8) followed by 3 passes through a French pressure cell (Thermo) and centrifugation at 27,000 g (Beckman Avanti).
as §1

[6] = Bronsted plots (pKa of leaving group vs log kcat) for N-dimethyl phenylureas; type: biochemical; conditions: slope between pKa 4-5
Text: (§3) was used to fit an activity y, either log(kcat) and log(kcat/Km) vs. pH. (y)^max is the plateau value and pKa^1 and pKa^2 are the apparent pKa values for the acidic and basic groups, respectively. Equations were fitted to the data using Kaleidagraph v3.6 (Synergy Software). The substrate pKa values were obtained via an online database www.syrres.com/esc/physdemo.htm (Syracuse Research Corporation).

[7] = pH dependence of kcat, kcat/Km and Km with diuron in constant ionic strength buffer; type: biochemical; conditions: for pKe1 / pKes1: acidic shoulder; for pKe2 / pKes2: basic shoulder; for pKe of the decrease in catalytic efficiency: basic side
Text: (§4) A bell shaped model (eq 2)
as §3

[8] = Stability in the presence of the solvents acetonitrile and methanol; type: biochemical; conditions: 1-18% v/v solvent
Experimental: (§5) The influence of solvents (acetonitrile and methanol) was examined by using 7 concentrations from 0.4-18.2% over 1 hour duplicate assays with 77 μM diuron and monitored by LCMS. The effect of temperature on the activity of the enzymes was determined in two ways: firstly, the temperature at which reaction was catalysed was controlled at 12 temperatures ranging from 2-60° C. with 154 μM diuron; secondly, enzyme was preincubated at 6 temperatures from 30-55° C. for 10 minutes prior to 1 hour assays at 25° C. The residual activity data was obtained by LCMS and fitted to the Boltzmann function (eq 1)

[9] = Thermal stability: residual activity after 10 minutes pre-incubation, Boltzmann fit; type: biochemical; conditions: for residual activity after incubation (in words): 10 minutes incubation at 40° C.; for Tm indicating 50% activity retained: 10 minutes pre-incubation, then 1 hour assay at 25° C.
Experimental: as §5, §4

[10] = Diuron hydrolase activity in the soluble fraction of recombinant expression hosts; type: biochemical
Text: PuhA and PuhB were amplified as N-hexa-histidine tagged fusions from pET14b (Novagen) in E. coli rosetta II cells (Novagen) and pMV261 (Stover et al., 1991) in M. smegmatis mc2. Protein without hexa-histidine tags was later expressed in M. smegmatis mc2. The PCR primers used in these cloning procedures are noted in Table 2 (SEQ ID NOs 5 to 13).
as §2

[11] = expressed in E. coli Rosetta 2 DE3 from pET14b
[12] = expressed in M. smegmatis from pMV261

CN(C)C(=O)Nc1ccc(Cl)c(Cl)c1 [diuron, N′-3,4-dichlorophenyl N-dimethylurea]
degradation of diuron (loss of diuron, accumulation of DCA) [1]: degradation of diuron was confirmed | kcat [2]: 0.48 s⁻¹ | rate enhancement kcat/knon ([2]; diuron): 1.7×10^9 | knon [3]: 2.8e-10 s⁻¹

B1: PuhB: phenylurea hydrolase from Mycobacterium brisbanense JK1, amino acid sequence SEQ ID NO:1 (protein)
chain: MSTIAITNVTLIDGLGGLPRPATTVIVEGDRFATVGPSDSTPVPEGATVVDGNRRWMVPGYVNGNVHLLDAWMFMAGPGTIEYLARWEGRYVEVIEEAAQLALRNGVTTVFDTHNAIEPVLAARDRINAGISQGARIFAAGTIVGMGGPFSADFHFAGRTAATRTFVDRIDSMFEAGVGHQLSLLPRKEVRARVRDYLSRGVDMLKIAVSDHIVFTLVDRSVGFDRSYQTFSRPVLEVMVEEARAAGVPVLTHSVSVEALDTSVELGADVLIHANYTLGQEIPNYLIDKIVASDSWAGLQTVHDQHRQGLEDVGSWAAALAGEPYATNERNLISANAKILLNTDAGCPSKDHLADLSPVEREDRPWTIGNDHFHWTQSMVEKGMSPLEAISAATINVARAYGKADQIGSVETGKLADFVLLDQDPVDDIRNLRSITEVFQAGAAVDRAALPTTPLVTAHPA
modifications: Mycobacterium brisbanense JK1
Activity (nmol DCA/μg/hour) ([4]; AS (ammonium sulfate)): 0.24 nmol DCA/μg/hour | Activity (nmol DCA/μg/hour) ([4]; CFE (cell free extract)): 0.05 nmol DCA/μg/hour | Activity (nmol DCA/μg/hour) ([4]; HIC): 0.24 nmol DCA/μg/hour | Activity (nmol DCA/μg/hour) ([4]; SEC): 0.04 nmol DCA/μg/hour | Activity (mM PNP/mg/min) ([5]; AEX): 3.9 mM PNP/mg/min | Activity (mM PNP/mg/min) ([5]; CFE): 0.1 mM PNP/mg/min | Activity (mM PNP/mg/min) ([5]; HIC): 1.4 mM PNP/mg/min | Activity (mM PNP/mg/min) ([5]; SEC): 4.3 mM PNP/mg/min | βlg [6]: −1.1 | pKe1 [7]: 5.0 | pKes1 [7]: 5.0 | pKe2 [7]: 9.6 | pKes2 [7]: 10.6 | pKe of the decrease in catalytic efficiency [7]: ~10 | activity in the presence of methanol and acetonitrile (in words) [8]: significantly inhibited | residual activity after incubation (in words) [9]: retaining significant activity | Tm indicating 50% activity retained [9]: 46.0 °C | activity in the soluble fraction (in words) [10, 11]: no activity was detected | activity in the soluble fraction (in words) [10, 12]: displayed diuron hydrolase activity

B2: PuhA: phenylurea hydrolase from A. globiformis D47, amino acid sequence SEQ ID NO:3 (protein)
chain: MTTTAITDITLIDGRGGAPERGVTVLVDEDRFSAIGPTATTPIPDGARVVGGAGRWMVPGYVNGNVHLLDAWMFMVGPGTIEYLARWEGRYVEVIEEAAQLVLRNGVTTVFDTYNAIEPVLAARDRINAGTSAGARIFAAGTIVGLGGPFSADFHFIGQQAASRTFVNRIDAMFEAGVGHQLSLLPRNEVRSRVRDYLARGVDMLKIAVSDHIVFTVGFDRSCQTFSRPVLEVMFEEARAAGVPVLTHSVSVEALDTSVDLGADVLIHANYTLGQHIPDYLIDKIAASDSYAGLQTVHHEHREGLERVGSWAATLAGEPYASNERALIRAKAKILMNTDAGCPSKDHLADLSPAEREDRPWTIGGDHFHWTQSIVEKGMTPLEAISAATLNVARAYGKDADIGSVETGKLADFVLLDADPTADIRHLRSISAVYQAGVAVDRGALPTTPLVTAHPA
modifications: Arthrobacter globiformis D47
Activity (nmol DCA/μg/hour) ([4]; AS (ammonium sulfate)): 0.18 nmol DCA/μg/hour | Activity (nmol DCA/μg/hour) ([4]; CFE (cell free extract)): 0.05 nmol DCA/μg/hour | Activity (nmol DCA/μg/hour) ([4]; HIC): 0.73 nmol DCA/μg/hour | Estimated specific activity (mol/mol/min) ([4]; HIC): 10.20 mol/mol/min | Activity (nmol DCA/μg/hour) ([4]; SEC): 2.79 nmol DCA/μg/hour | Estimated specific activity (mol/mol/min) ([4]; SEC): 7.02 mol/mol/min | Activity (mM PNP/mg/min) ([5]; AEX): 6.2 mM PNP/mg/min | Activity (mM PNP/mg/min) ([5]; CFE): 0.3 mM PNP/mg/min | Activity (mM PNP/mg/min) ([5]; HIC): 4.3 mM PNP/mg/min | Activity (mM PNP/mg/min) ([5]; SEC): 7.8 mM PNP/mg/min | βlg [6]: −1.6 | pKe1 [7]: 4.2 | pKes1 [7]: 5.1 | pKe2 [7]: 8.9 | pKes2 [7]: 10.2 | pKe of the decrease in catalytic efficiency [7]: ~10 | activity in the presence of methanol and acetonitrile (in words) [8]: significantly inhibited | residual activity after incubation (in words) [9]: retaining significant activity | Tm indicating 50% activity retained [9]: 46.6 °C | specific activity in the soluble fraction, fold lower compared to the native expression [10, 11]: ~10 fold | activity in the soluble fraction (in words) [10, 12]: comparable to that measured in the native expressions
